B1: α-subunit of the archaeal (Thermoplasma acidophilum) 20S proteasome (natural protein)
chain: MQQGQMAYDRAITVFSPDGRLFQVEYAREAVKKGSTALGMKFANGVLLISDKKVRSRLIEQNSIEKIQLIDDYVAAVTSGLVADARVLVDFARISAQQEKVTYGSLVNIENLVKRVADQMQQYTQYGGVRPYGVSLIFAGIDQIGPRLFDCDPAGTINEYKATAIGSGKDAVVSFLEREYKENLPEKEAVTLGIKALKSSLEEGEELKAPEIASITVGNKYRIYDQEEVKKFL

Columns and labels:
[1] = molecular target: the molecule itself; assay: native MS; SID-IM-MS on a Synapt G2 with SID device: two most intense charge states isolated, surface-induced dissociation at 150 V, subcomplexes separated by ion mobility; charge reduced with TEAA (0.1/0.9 TEAA/ammonium acetate, v/v)
[2] = molecular target: α7 ring of the yeast (Saccharomyces cerevisiae) 20S proteasome (yeast (Saccharomyces cerevisiae), UniProt P40302 1-234; P23639 2-250; P21242 1-288; P23638 2-258; P32379 1-260; P21243 …, N-terminal acetylation | N-terminal acetylation | N-terminal acetylation | N-terminal acetylation | N-terminal acetylation | N-terminal acetylation); assay: native MS; intact 20S proteasomes, native IM-MS on a modified Synapt G1; 150 mM ammonium acetate, pH 7, ~3 uM; conditions: both partners purified
[3] = molecular target: PSMA6 subunit of the human 20S proteasome (human (HEK293 cells), UniProt P60900 2-246, N-terminal acetylation); assay: native MS; SID-IM-MS on a Synapt G2 with SID device: two most intense charge states isolated, surface-induced dissociation at 150 V, subcomplexes separated by ion mobility; charge reduced with TEAA (0.1/0.9 TEAA/ammonium acetate, v/v); conditions: both partners purified
Chain of PSMA6 subunit of the human 20S proteasome (P60900 2-246): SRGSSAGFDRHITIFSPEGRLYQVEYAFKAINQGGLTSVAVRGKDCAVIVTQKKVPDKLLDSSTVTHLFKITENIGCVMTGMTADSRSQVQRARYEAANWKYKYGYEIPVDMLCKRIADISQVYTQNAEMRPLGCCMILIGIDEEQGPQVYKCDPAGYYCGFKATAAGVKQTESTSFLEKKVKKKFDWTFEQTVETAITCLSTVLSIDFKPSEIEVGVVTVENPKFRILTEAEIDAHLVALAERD

[4] = molecular target: PSMA6 subunit of the rat 20S proteasome (rat (Rattus norvegicus), UniProt P60901 2-246, N-terminal acetylation); assay: as above; conditions: both partners purified
Chain of PSMA6 subunit of the rat 20S proteasome (P60901 2-246): as the sequence (P60900 2-246) above

[5] = molecular target: B1; assay: as above; conditions: both partners purified

Binder	binding result [1]	other results
β7 ring of the yeast (Saccharomyces cerevisiae) 20S proteasome (complex, N-terminal acetylation) chain 1: QFNPYGDNGGTILGIAGEDFAVLAGDTRNITDYSINSRYEPKVFDCGDNIVMSANGFAADGDALVKRFKNSVKWYHFDHNDKKLSINSAARNIQHLLYGKRFFPYYVHTIIAGLDEDGKGAVYSFDPVGSYEREQCRAGGAAASLIMPFLDNQVNFKNQYEPGTNGKVKKPLKYLSVEEVIKLVRDSFTSATERHIQVGDGLEILIVTKDGVRKEFYELKRD chain 2: MDIILGIRVQDSVILASSKAVTRGISVLKDSDDKTRQLSPHTLMSFAGEAGDTVQFAEYIQANIQLYSIREDYELSPQAVSSFVRQELAKSIRSRRPYQVNVLIGGYDKKKNKPELYQIDYLGTKVELPYGAHGYSGFYTFSLLDHHYRPDMTTEEGLDLLKLCVQELEKRMPMDFKGVIVKIVDKDGIRQVDDFQAQ chain 3: SDPSSINGGIVVAMTGKDCVAIACDLRLGSQSLGVSNKFEKIFHYGHVFLGITGLATDVTTLNEMFRYKTNLYKLKEERAIEPETFTQLVSSSLYERRFGPYFVGPVVAGINSKSGKPFIAGFDLIGCIDEAKDFIVSGTASDQLFGMCESLYEPNLEPEDLFETISQALLNAADRDALSGWGAVVYIIKKDEVVKRYLKMRQD chain 4: TQQPIVTGTSVISMKYDNGVIIAADNLGSYGSLLRFNGVERLIPVGDNTVVGISGDISDMQHIERLLKDLVTENAYDNPLADAEEALEPSYIFEYLATVMYQRRSKMNPLWNAIIVAGVQSNGDQFLRYVNLLGVTYSSPTLATGFGAHMANPLLRKVVDRESDIPKTTVQVAEEAIVNAMRVLYYRDARSSRNFSLAIIDKNTGLTFKKNLQVENMKWDFAKDIKGYGTQKI chain 5: TTTLAFRFQGGIIVAVDSRATAGNWVASQTVKKVIEINPFLLGTMAGGAADCQFWETWLGSQCRLHELREKERISVAAASKILSNLVYQYKGAGLSMGTMICGYTRKEGPTIYYVDSDGTRLKGDIFCVGSGQTFAYGVLDSNYKWDLSVEDALYLGKRSILAAAHRDAYSGGSVNLYHVTEDGWIYHGNHDVGELFWKVKEEEGSFNNVIG chain 6: TSIMAVTFKDGVILGADSRTTTGAYIANRVTDKLTRVHDKIWCCRSGSAADTQAIADIVQYHLELYTSQYGTPSTETAASVFKELCYENKDNLTAGIIVAGYDDKNKGEVYTIPLGGSVHKLPYAIAGSGSTFIYGYCDKNFRENMSKEETVDFIKHSLSQAIKWDGSSGGVIRMVVLTAAGVERLIFYPDEYEQL chain 7: TTIVGVKFNNGVVIAADTRSTQGPIVADKNCAKLHRISPKIWCAGAGTAADTEAVTQLIGSNIELHSLYTSREPRVVSALQMLKQHLFKYQGHIGAYLIVAGVDPTGSHLFSIHAHGSTDVGYYLSLGSGSLAAMAVLESHWKQDLTKEEAIKLASDAIQAGIWNDLGSGSNVDVCVMEIGKDAEYLRNYLTPNVREEKQKSYKFPRGTTAVLKESIVNICDIQEEQVDITA	binds	binding result [2]: binds
B1	binds	
PSMA2 subunit of the human 20S proteasome (natural protein, human (HEK293 cells), UniProt P25787 2-234, looked up, N-terminal acetylation) AERGYSFSLTTFSPSGKLVQIEYALAAVAGGAPSVGIKAANGVVLATEKKQKSILYDERSVHKVEPITKHIGLVYSGMGPDYRVLVHRARKLAQQYYLVYQEPIPTAQLVQRVASVMQEYTQSGGVRPFGVSLLICGWNEGRPYLFQSDPSGAYFAWKATAMGKNYVNGKTFLEKRYNEDLELEDAIHTAILTLKESFEGQMTEDNIEVGICNEAGFRRLTPTEVKDYLAAIA		binding result [3]: binds
PSMA2 subunit of the rat 20S proteasome (natural protein, rat (Rattus norvegicus), UniProt P17220 2-234, looked up, N-terminal acetylation) AERGYSFSLTTFSPSGKLVQIEYALAAVAGGAPSVGIKAANGVVLATEKKQKSILYDERSVHKVEPITKHIGLVYSGMGPDYRVLVHRARKLAQQYYLVYQEPIPTAQLVQRVASVMQEYTQSGGVRPFGVSLLICGWNEGRPYLFQSDPSGAYFAWKATAMGKNYVNGKTFLEKRYNEDLELEDAIHTAILTLKESFEGQMTEDNIEVGICNEAGFRRLTPTEVRDYLAAIA		binding result [4]: binds
β7 ring of the rat 20S proteasome (complex, rat (Rattus norvegicus), N-terminal acetylation | N-terminal acetylation) chain 1: RFSPYAFNGGTVLAIAGEDFSIVASDTRLSEGFSIHTRDSPKCYKLTDKTVIGCSGFHGDCLTLTKIIEARLKMYKHSNNKAMTTGAIAAMLSTILYSRRFFPYYVYNIIEGLDEEGKGAVYSFDPVGSYQRDSFKAGGSASAMLQPLLDNQVGFKNMQNVEHVPLTLDRAMRLVKDVFISAAERDVYTGDALRICIVTKEGIREETVPLRKD chain 2: EYLIGIQGPDYVLVASDRVAASNIVQMKDDHDKMFKMSEKILLLCVGEAGDTVQFAEYIQKNVQLYKMRNGYELSPTAAANFTRRNLADCLRSRTPYHVNLLLAGYDEHEGPALYYMDYLAALAKAPFAAHGYGAFLTLSILDRYYTPTISRERAVELLRKCLEELQKRFILNLPTFSVRVIDKDGIHNLENITFTKRSS chain 3: SVMSYNGGAVMAMKGKNCVAIAADRRFGIQAQMVTTDFQKIFPMGDRLYIGLAGLATDVQTVAQRLKFRLNLYELKEGRQIKPYTLMSMVANLLYEKRFGPYYTEPVIAGLDPKTFKPFICSLDLIGCPMVTDDFVVSGTCSEQMYGMCESLWEPNMDPEHLFETISQAMLNAVDRDAVSGMGVIVHIIEKDKITTRTLKARMD chain 4: TQNPMVTGTSVLGVKFDCGVVIAADMLGSYGSLARFRNISRIMRVNDSTMLGASGDYADFQYLKQVLGQMVIDEELFGDGHSYSPRAIHSWLTRAMYSRRSKMNPLWNTKVIGGYAGGESFLGYVDMLGVAYEAPSLATGYGAYLAQPLLREVLEKQPVLSQTEARELVERCMRVLYYRDARSYNRFQVATVTEKGVEIEGPLSAQTNWDIAHMISGFE chain 5: TTTLAFKFQHGVIVAADSRATAGPYIASQTVKKVIEINPYLLGTMAGGAADCSFWERLLARQCRIYELRNKERISVAAASKLLANMVYQYKGMGLSMGTMICGWDKRGPGLYYVDSEGNRISGTAFSVGSGSVYAFGVMDRGYSYDLQVEEAYDLARRAIYQATYRDAYSGGAVNLYHVREDGWIRVSSDNVADLHDKYTSSIP chain 6: TTIMAVQFDGGVVLGADSRTTTGSYIANRVTDKLTPIHDHIFCCRSGSAADTQAVADAVTYQLGFHSIELNEPPLVHTAASLFKEMCYRYREDLMAGIIIAGWDPQEGGQVYSVPMGGMMVRQSFAIGGSGSSYIYGYVDATYREGMTKDECLQFTANALALAMERDGSSGGVIRLAAIQQSGVERQVLLGDQIPKVTISTLPPP chain 7: TTIAGVVYKDGIVLGADTRATEGMVVADKNCSKIHFISPNIYCCGAGTAADTDMTTQLISSNLELHSLTTGRLPRVVTANRMLKQMLFRYQGYIGAALVLGGVDVTGPHLYSIYPHGSTDKLPYVTMGSGSLAAMAVFEDKFRPDMEEEEAKKLVSEAIAAGIFNDLGSGSNIDLCVISKSKLDFLRPYSVPNKKGTRFGRYRCEKGTTAVLTEKVTPLELEVLEEIVQTMDTS	binds	
β-subunit of the archaeal (Thermoplasma acidophilum) 20S proteasome (natural protein, UniProt P28061 9-211, looked up) TTTVGITLKDAVIMATERRVTMENFIMHKNGKKLFQIDTYTGMTIAGLVGDAQVLVRYMKAELELYRLQRRVNMPIEAVATLLSNMLNQVKYMPYMVQLLVGGIDTAPHVFSIDAAGGSVEDIYASTGSGSPFVYGVLESQYSEKMTVDEGVDLVIRAISAAKQRDSASGGMIDVAVITRKDGYVQLPTDQIESRIRKLGLIL	binds	binding result [5]: binds

— publication PMC7181328 (ACS Central Science, 2020)
